This is an account of results in US7572612B2, “Method of production of para-hydroxycinnamic acid using a thermostable TAL enzyme” (E.I. du Pont de Nemours and Company, priority 2006, dated 2009).

A short description of assay [1]: TAL activity temperature profile of purified enzyme. Type of assay: biochemical. As for the experimental part: Six grams of cell pellet, from the 10 liter fermentation of DPD5154 was resuspended in 6.0 mL Buffer A (10 mM Tris-HCl, pH 8.0, 200 μM EDTA) containing one EDTA-free protease inhibitor tablet (Roche Biosciences, Palo Alto, Calif.), 1.0 μg/ml Leupeptin, 1.0 μg/ml Pepstatin, 40 μg/ml Bestatin 5.0 mM CA. Cells were lysed by two passes through a French Pressure Cell at 20,000 PSI, and clarified by centrifugation at 12,000×g for 20 minutes. To the clarified supernatant, 1.0% streptomycin sulfate was added, and the suspension was gently mixed for 15 minutes at 4° C. and then clarified by centrifugation at 12,000×g for 20 minutes. The supernatant was heated at 60° C. for 20 min, and centrifuged again at 12,000×g for 20 minutes. This clarified crude extract sample was loaded onto a Q Sepharose FF 16/10 anion exchange column equilibrated with buffer A in an Akta FPLC system (Amersham, GE Healthcare, Piscataway, N.J.), and eluted with 10 column volumes of gradient from Buffer A, to Buffer A containing 1.0 M NaCl. Five ml fractions were collected from the column and assayed for TAL activity as described above. The fractions containing TAL activity were pooled. To the pooled anion exchange fractions containing TAL activity, saturated (NH4)2SO4 (4.0M) was added to final 30% saturation. After centrifugation at 12,000 g for 20 minutes, additional saturated (NH4)2SO4 (4.0M) was added to the supernatant fraction to a final 50% saturation. The mixture was centrifuged again at 12,000 g for 20 minutes, and the supernatant was removed. […] The purity of the PcTAL protein in the fractions was analyzed by SDS-PAGE. The fractions containing TAL activity with high purity as determined by SDS-PAGE were pooled. […]
The in vitro enzymatic assay using the purified PcTAL was performed as a comparison to the whole cell assay. The temperature profile of the purified PcTAL enzyme (from Example 6) was measured at temperatures varying from 25° C. to 60° C. in 100 mM CAPS buffer, pH 10, containing 1.0 mM tyrosine. […]

Assay [2] can be described thus: Kinetic parameters of the PcTAL enzyme for tyrosine. Type of assay: biochemical. The note with it: from kcat/KM, 45° C., 100 mM CAPS pH 9.5. On the procedure: The kinetic parameters of the PcTAL enzyme for tyrosine and phenylalanine were determined at 45° C., in 100 mM CAPS, pH 9.5 buffer. The increase of TAL and PAL activities with increasing substrate concentrations followed the typical Michaelis-Menton equation. The kcat of the enzyme was 1.3 S^−1 for tyrosine, and 3.3 S^−1 for phenylalanine. The KM was 44 μM for tyrosine and 161 μM for phenylalanine. The kcat/KM value was slightly higher for tyrosine (3.0 M^−1 S^−1) than for phenylalanine (2.1 M^−1 S^−1), indicating the enzyme's slight preference for tyrosine (PAL/TAL ratio of 0.7). […] The substrate specificity of the PcTAL enzyme is therefore similar to other known fungal PAL/TAL enzymes, such as that from R. glutinis, with dual specificity for tyrosine and phenylalanine.

Assay [3] in a line: Whole cell TAL activity temperature profile. The assay is classed as cell-based, E. coli. On the procedure: A fermentation run was performed as in Example 6 for strain DPD5154. The TAL activity of the strain was measured in a cell-based assay at different temperatures. The fermentation cell paste was resuspended in water, and diluted to OD600 of 3.0. Formation of pHCA was monitored in a 1.0 ml reaction in a UV grade disposable cuvette (VWR) for three minutes at λ315 nm, 35° C. with 0.03 OD600 of DPD5154 cells, in 100 mM CAPS, pH10 with 10 mM tyrosine. The pH value of the CAPS buffer was adjusted according to the corresponding assay temperature, which was varied from 25° C. to 60° C. The TAL activity was calculated using the following equation based on the assumption that 1.0 OD600 of E. coli cells is equivalent to 0.33 g/L dry cell weight (dcw). The extinction coefficient of pHCA at pH 10 at 315 nm had previously been experimentally determined to be 16,800 M^−1 cm^−1. One unit of enzyme activity is defined as the formation of 1.0 μM of pHCA product per minute reaction. The total TAL Activity (μM/min)=Initial Slope (/min)×[1,000,000 (μM/M)/16,800 M^−1 cm^−1]=Slope (/min)×59.52 (μM)

B1: PcTAL: thermostable tyrosine ammonia lyase (PAL/TAL) enzyme from Phanerochaete chrysosporium, SEQ ID NO:1 (protein, listed as Phanerochaete chrysosporium)
chain: MPSRIDYYTSSGNGYAQSRKSSAIYPASASTGHAAPSTERKPELLDKFVEAYDELQSYREGKPVIVDGHNLSIPAVAATARFGAAVVLDENPETHERVLQSRRVIVDKVSTQRSVYGVSTGFGGSADTRTSDPLQLGHALLQHQHVGVLPTQTESPLPALPLGDPLATTSMPEAWVRGAILIRMNSLIRGHSGVRWELIEKMGELLRENITPLVPLRGSISASGDLSPLSYIAGTLIGSPAIRVFDGPASYGARRILPSNIALANHGVAPIPLSSKEHLGILNGTAFSASVGALALNEAVHLSLLAQVCTAMGTEAMIGAVGSFDAFIHDTARPHPGQVEVARNVRTLLEDSQMAVKAEDEVHIAEDEGELRQDRYPLRTAAQFLGPQIEDILSAHETVTLECNSTTDNPLIDGETGTVHHGGNFQAMAVTNAMEKTRLAIHHIGKLLFAQATELINPMMNRGLPPNLAATDPSHNYFAKGVDIHLAAYVGELGFLASPVSSHIQSAEMHNQAVNSLALVSARYTISALDVLSLLTAAYLYVLCQALDLRAMHNDLQSSLSAIVRELLPKHFPSAAKRADALLPILERTIFRALNSSSSADCKARMVSVAASTTTPLVDFLSADAALASELANITAFRTELATRAADALTTLRTQYLEGARGAAPASKYLGKTRPVYEFVRVTLNVPMHGRENLHNFEMGPGVEDGIIGNNISTIYEAIRDGKMQNVVMQLVKSIKA
Take B1: in assay [1] (55° C.), the “TAL activity at 55° C.” value turned out to be 1479 U/g. For the same molecule, the “TAL activity at 60° C.” value in assay [1] (60° C.) was found to be 1431 U/g. Also, in assay [1] (about 55° C. vs 25° C.), the “maximum activity of purified enzyme relative to that at 25° C.” value is recorded as “about 3 fold”. Also, in assay [2], the PAL/TAL ratio stood at 0.7. Further, the “activity at 60° C. relative to that at 25° C. in whole cells” value in assay [3] was “about 6 fold”.
